Substrate in this data set: N[C@@H](Cc1ccc(O)cc1)C(=O)O
In words: enzyme kinetics (Km), phenol by LC-MS. The data set is classed as biochemical, Morganella morganii. The following applies: pyridoxal […]'-phosphate (PLP).

B1: Tyrosine phenol-lyase (TPL) (Morganella morganii subsp. morganii KT) (protein)
chain: MMYPAEPYRIKSVETVSMIPREERIKRMKEAGYNTFLLNSKDVYVDLLTDSGTNAMSDKQWAGMMMGDEAYAGSENFFHLERTVQELFGFKHIVPTHQGRGAENLLSSLAIKPGQYVAGNMYFTTTRYHQEKNGATFIDIVRDEAHDAGLDVKFKGNIDIKKLEKLIAEKGAENIAYICLAVTVNLAGGQPVSMANMREVRQLCDKHGIKVFYDATRCVENAYFIKEQEEGFEDVSIKDIVHEMFSYADGCTMSGKKDCLVNIGGFLCMNDDDMFSAARELVVVYEGMPSYGGLAGRDMEAMAIGLREAMQFEYIEHRVKQVRYLGEKLKAAGVPIVEPVGGHAVFLDARRFCPHLTQDEFPAQSLAASIYMETGVRSMERGIISAGRNKETGDHHRPKLETVRLTIPRRVYTYAHMDLVADGIIKLFKHKEDIKGLKFVYEPKQLRFFTARFDYV
notes: recombinant TPL from M. morganii ssp. morganii (JCM1672), pET-15b
The term Km denotes the substrate concentration at which the rate is half of its maximum. B1: the Km was 270 µM.

These data come from PMC11259132, “Tyrosine phenol-lyase inhibitor quercetin reduces fecal phenol levels in mice” (PNAS Nexus, 2024).
